# Test results published in IntAct's records for PubMed 30659753.
# B1: Protein KHNYN (Homo sapiens), O15037 (parent)
# chain: MPTWGARPASPDRFAVSAEAENKVREQQPHVERIFSVGVSVLPKDCPDNPHIWLQLEGPKENASRAKEYLKGLCSPELQDEIHYPPKLHCIFLGAQGFFLDCLAWSTSAHLVPRAPGSLMISGLTEAFVMAQSRVEELAERLSWDFTPGPSSGASQCTGVLRDFSALLQSPGDAHREALLQLPLAVQEELLSLVQEASSGQGPGALASWEGRSSALLGAQCQGVRAPPSDGRESLDTGSMGPGDCRGARGDTYAVEKEGGKQGGPREMDWGWKELPGEEAWEREVALRPQSVGGGARESAPLKGKALGKEEIALGGGGFCVHREPPGAHGSCHRAAQSRGASLLQRLHNGNASPPRVPSPPPAPEPPWHCGDRGDCGDRGDVGDRGDKQQGMARGRGPQWKRGARGGNLVTGTQRFKEALQDPFTLCLANVPGQPDLRHIVIDGSNVAMVHGLQHYFSSRGIAIAVQYFWDRGHRDITVFVPQWRFSKDAKVRESHFLQKLYSLSLLSLTPSRVMDGKRISSYDDRFMVKLAEETDGIIVSNDQFRDLAEESEKWMAIIRERLLPFTFVGNLFMVPDDPLGRNGPTLDEFLKKPARTQGSSKAQHPSRGFAEHGKQQQGREEEKGSGGIRKTRETERLRRQLLEVFWGQDHKVDFILQREPYCRDINQLSEALLSLNF
# Variants of: B1
# Conditions: with nedd8_human NEDD8, Q15843
# Sequence of nedd8_human NEDD8, Q15843 (Q15843 whole entry): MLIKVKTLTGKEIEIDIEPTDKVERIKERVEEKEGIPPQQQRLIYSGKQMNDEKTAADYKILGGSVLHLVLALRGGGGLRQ
row,Variant,effect of a mutation on the interaction
1,W647P,decreasing interaction
2,W647A,decreasing interaction
3,H651F,decreasing interaction
4,K652D,decreasing interaction

# Further lines, results first:
row,effect of a mutation on the interaction,Variant
1,decreasing interaction,R664E
2,decreasing interaction,R659E
